What was measured:
human FAP on cells [1] = target: T1, human FAP on cells (human, UniProt Q12884 1-760); test: cell-based or functional assay
T1 sequence: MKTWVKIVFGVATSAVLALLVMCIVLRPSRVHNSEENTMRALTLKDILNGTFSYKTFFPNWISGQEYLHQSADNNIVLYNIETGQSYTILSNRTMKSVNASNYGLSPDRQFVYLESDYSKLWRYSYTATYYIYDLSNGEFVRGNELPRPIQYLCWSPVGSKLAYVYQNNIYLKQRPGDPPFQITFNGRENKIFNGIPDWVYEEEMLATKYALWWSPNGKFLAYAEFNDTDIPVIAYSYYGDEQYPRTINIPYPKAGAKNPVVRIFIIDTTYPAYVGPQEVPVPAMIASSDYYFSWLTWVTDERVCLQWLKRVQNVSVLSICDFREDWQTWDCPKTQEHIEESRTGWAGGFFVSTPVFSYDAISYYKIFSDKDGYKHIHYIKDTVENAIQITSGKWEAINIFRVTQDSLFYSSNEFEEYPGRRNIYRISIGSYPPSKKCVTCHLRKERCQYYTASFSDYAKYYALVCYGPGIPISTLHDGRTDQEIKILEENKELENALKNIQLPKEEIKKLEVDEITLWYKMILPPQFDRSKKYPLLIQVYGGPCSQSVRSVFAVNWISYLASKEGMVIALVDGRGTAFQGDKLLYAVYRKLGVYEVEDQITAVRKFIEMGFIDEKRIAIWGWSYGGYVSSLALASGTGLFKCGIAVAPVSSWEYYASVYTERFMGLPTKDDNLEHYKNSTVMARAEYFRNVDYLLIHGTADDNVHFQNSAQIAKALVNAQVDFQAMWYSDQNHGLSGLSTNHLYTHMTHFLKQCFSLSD

soluble FAP [2] = target: T2, soluble FAP (human, UniProt Q12884 26-760, limits assumed); test: cell-based or functional assay
T2 sequence: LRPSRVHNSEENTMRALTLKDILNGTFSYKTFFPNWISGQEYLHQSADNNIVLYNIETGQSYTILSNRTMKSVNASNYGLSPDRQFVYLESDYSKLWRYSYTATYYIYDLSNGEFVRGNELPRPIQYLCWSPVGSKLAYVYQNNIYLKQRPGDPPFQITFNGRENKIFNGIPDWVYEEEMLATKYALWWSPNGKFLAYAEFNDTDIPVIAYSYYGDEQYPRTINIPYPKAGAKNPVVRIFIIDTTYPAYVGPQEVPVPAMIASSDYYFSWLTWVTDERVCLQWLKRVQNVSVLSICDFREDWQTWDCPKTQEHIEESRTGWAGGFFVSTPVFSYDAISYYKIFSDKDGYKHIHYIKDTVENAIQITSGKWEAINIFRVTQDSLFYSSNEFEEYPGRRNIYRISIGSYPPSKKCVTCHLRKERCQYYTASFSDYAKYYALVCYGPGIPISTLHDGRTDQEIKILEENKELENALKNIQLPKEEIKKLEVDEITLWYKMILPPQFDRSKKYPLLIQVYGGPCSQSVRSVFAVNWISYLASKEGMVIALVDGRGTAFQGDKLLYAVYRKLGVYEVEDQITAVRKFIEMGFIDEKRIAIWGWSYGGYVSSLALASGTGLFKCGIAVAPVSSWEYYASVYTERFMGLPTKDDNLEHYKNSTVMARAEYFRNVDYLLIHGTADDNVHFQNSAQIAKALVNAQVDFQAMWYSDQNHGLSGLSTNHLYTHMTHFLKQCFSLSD

cyno CD40 on B cells = target: T3, cyno CD40 on B cells (cynomolgus monkey, UniProt G7PG38 21-278); test: binding to cyno CD40-positive B cells
T3 construct: whole, on cells; also called Cyno CD40-positive B cell

cyno FAP on HEK cells = target: T4, cyno FAP on HEK cells (cynomolgus monkey); test: binding to cyno FAP-positive HEK cells
T4 construct: whole, on cells; also called Cyno FAP-positive HEK cells

human FAP protein = target: T5, human FAP protein (human, UniProt Q12884 26-760); test: SPR
T5 sequence: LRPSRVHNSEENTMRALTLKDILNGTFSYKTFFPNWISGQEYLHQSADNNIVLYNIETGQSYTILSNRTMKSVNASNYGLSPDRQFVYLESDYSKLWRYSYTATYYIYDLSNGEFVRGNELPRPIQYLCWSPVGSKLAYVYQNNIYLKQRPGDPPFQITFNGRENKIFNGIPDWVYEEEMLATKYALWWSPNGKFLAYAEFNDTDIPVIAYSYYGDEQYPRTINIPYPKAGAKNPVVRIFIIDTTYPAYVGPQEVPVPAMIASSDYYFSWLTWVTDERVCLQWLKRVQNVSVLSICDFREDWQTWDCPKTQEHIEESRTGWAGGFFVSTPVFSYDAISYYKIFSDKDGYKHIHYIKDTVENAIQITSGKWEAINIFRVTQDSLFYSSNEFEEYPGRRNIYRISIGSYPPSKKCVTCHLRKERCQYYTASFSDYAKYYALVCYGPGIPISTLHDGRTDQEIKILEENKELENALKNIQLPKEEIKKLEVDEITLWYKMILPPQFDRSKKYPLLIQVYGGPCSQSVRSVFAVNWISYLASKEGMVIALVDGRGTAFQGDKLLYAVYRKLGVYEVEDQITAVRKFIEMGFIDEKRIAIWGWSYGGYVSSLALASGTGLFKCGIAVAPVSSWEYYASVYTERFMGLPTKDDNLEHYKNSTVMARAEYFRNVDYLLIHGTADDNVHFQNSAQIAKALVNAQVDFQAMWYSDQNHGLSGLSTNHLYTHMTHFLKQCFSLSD
Protocol: (§1) CD40.9H3×FAP.LP62 and an analog of RO7300490 (see SEQ ID NOs: 39-42) binding to human and cynomolgus (cyno) CD40 and FAP was evaluated by surface plasmon resonance (SPR) using human and cyno CD40 and FAP proteins. […] The rates of association and dissociation of CD40.9H3×FAP.LP62 and the analog of RO7300490 to human CD40 and FAP are summarized in Table 2.

[3] = target: T6, cynomolgus (cyno) FAP protein (cynomolgus monkey); test: SPR
T6 chain: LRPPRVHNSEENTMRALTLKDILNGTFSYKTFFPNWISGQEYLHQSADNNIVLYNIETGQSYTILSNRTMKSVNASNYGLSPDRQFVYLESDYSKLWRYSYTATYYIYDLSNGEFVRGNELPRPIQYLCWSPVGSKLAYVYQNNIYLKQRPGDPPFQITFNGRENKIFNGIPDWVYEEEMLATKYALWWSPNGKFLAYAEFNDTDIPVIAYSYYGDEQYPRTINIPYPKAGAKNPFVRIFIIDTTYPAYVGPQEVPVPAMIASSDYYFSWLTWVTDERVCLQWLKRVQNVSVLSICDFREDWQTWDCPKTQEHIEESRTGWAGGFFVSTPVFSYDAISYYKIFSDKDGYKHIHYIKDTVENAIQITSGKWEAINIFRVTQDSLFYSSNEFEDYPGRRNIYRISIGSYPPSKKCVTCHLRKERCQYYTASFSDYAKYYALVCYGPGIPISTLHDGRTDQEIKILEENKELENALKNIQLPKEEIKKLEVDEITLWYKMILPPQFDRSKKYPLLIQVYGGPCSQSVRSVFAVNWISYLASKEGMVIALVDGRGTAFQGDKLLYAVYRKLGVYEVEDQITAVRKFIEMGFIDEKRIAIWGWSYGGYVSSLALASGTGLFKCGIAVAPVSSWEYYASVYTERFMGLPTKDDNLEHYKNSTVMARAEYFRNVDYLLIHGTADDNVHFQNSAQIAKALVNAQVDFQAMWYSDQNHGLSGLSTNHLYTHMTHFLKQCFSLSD
Protocol: as §1

human CD40 protein = target: T7, human CD40 protein (human, UniProt P25942 21-193); test: SPR
T7 construct: Protein used in SPR
T7 sequence (P25942 21-193 limits assumed): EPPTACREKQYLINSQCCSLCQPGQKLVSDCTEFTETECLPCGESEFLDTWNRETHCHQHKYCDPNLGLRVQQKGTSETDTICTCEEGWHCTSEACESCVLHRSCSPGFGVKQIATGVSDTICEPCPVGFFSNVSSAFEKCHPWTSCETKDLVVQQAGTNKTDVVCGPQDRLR
Protocol: as §1

human FAP on cells [4] = target: T1, human FAP on cells; test: cell-based or functional assay; remark: listed apart in the source
soluble FAP [5] = target: T2, soluble FAP; test: cell-based or functional assay; remark: listed apart in the source

B1: CD40.9H3×FAP.LP62 bispecific antibody (bispecific antibody, human IgG1, kappa, L234A L235A)
heavy 1: EVQLVESGGGLVQPGGSLRLSCAASGFTFIGYSMNWVRQAPGKGLEWVSYISSYESTIYYADSVKGRFTISRDNAKNSLYLQMNSLRAEDTAVYYCARSRITLVRGVPRYFDLWGRGTLVTVSSASTKGPSVFPLAPSSKSTSGGTAALGCLVKDYFPEPVTVSWNSGALTSGVHTFPAVLQSSGLYSLSSVVTVPSSSLGTQTYICNVNHKPSNTKVDKKVEPKSCDKTHTCPPCPAPEAAGGPSVFLFPPKPKDTLMISRTPEVTCVVVSVSHEDPEVKFNWYVDGVEVHNAKTKPREEQYNSTYRVVSVLTVLHQDWLNGKEYKCKVSNKALPAPIEKTISKAKGQPREPQVYVLPPSREEMTKNQVSLLCLVKGFYPSDIAVEWESNGQPENNYLTWPPVLDSDGSFFLYSKLTVDKSRWQQGNVFSCSVMHEALHNHYTQKSLSLSPG
heavy 2: EVQLVESGGGLVQPGGSLRLSCAASGFTFIGYSMNWVRQAPGKGLEWVSYISSYESTIYYADSVKGRFTISRDNAKNSLYLQMNSLRAEDTAVYYCARSRITLVRGVPRYFDLWGRGTLVTVSSASTKGPSVFPLAPSSKSTSGGTAALGCLVKDYFPEPVTVSWNSGALTSGVHTFPAVLQSSGLYSLSSVVTVPSSSLGTQTYICNVNHKPSNTKVDKKVEPKSCDKTHTCPPCPAPEAAGGPSVFLFPPKPKDTLMISRTPEVTCVVVSVSHEDPEVKFNWYVDGVEVHNAKTKPREEQYNSTYRVVSVLTVLHQDWLNGKEYKCKVSNKALPAPIEKTISKAKGQPREPQVYVYPPSREEMTKNQVSLTCLVKGFYPSDIAVEWESNGQPENNYKTTPPVLDSDGSFALVSKLTVDKSRWQQGNVFSCSVMHEALHNHYTQKSLSLSPGGGSGGGGSGGGGSGGGGSEVQLLESGGGLVQPGGSLRLSCAASGFTFSSRGMSWVRQAPGKCLEWVSFISSSGTYVYYADSVKGRFTISRDNSKNTLYLQMNSLRAEDTAVYYCARDLPRTGVYFGMDVWGQGTTVTVSSGGGGSGGGGSGGGGSGGGGSDIQMTQSPSSLSASVGDRVTITCRASQSIFNYLNWYQQKPGKAPKLLIYGASTLQSGVPSRFSGSGSGTDFTLTISSLQPEDFATYYCQESYSTPYTFGCGTKVEIK
light: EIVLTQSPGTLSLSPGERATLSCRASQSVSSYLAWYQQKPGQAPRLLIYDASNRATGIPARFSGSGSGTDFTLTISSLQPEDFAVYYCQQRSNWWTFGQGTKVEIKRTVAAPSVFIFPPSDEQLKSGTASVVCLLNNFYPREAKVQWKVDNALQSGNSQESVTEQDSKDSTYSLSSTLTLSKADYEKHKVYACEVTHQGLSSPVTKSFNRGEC
notes: 2+1 format: two anti-CD40 9H3 Fabs on an IgG1 Fc with L234A, L235A, D265S and heterodimerization mutations; Ratio 1:1:2
For B1, the “IL12p40 secretion, human DC + HFF1 co-culture, EC50” value (human FAP on cells [1]) was 0.079 nM, the “TNFα release, CD40-positive macrophages + HFF1 co-culture, EC50” value (human FAP on cells [1]) was 0.12 nM and the “fold reduction in potency of IL12p40 secretion with 120 ng/mL soluble FAP” value (soluble FAP [2]) was 4.2 fold. For the same binder, the “fold reduction in potency of IL12p40 secretion with 480 ng/mL soluble FAP” value (soluble FAP [2]) was 7.5 fold, the EC50 (cyno CD40 on B cells) was 4.69 nM and the EC50 (cyno FAP on HEK cells) was 3.6 nM. The Kd (human FAP protein) was 1.96 nM, the koff (human FAP protein) was 0.00147 s⁻¹ and the kon (human FAP protein) was 750000 M⁻¹ s⁻¹. It also gave a Kd [3] of 5.6 nM, a koff [3] of 0.00276 s⁻¹ and a kon [3] of 500000 M⁻¹ s⁻¹. The Kd (human CD40 protein) was 92 nM, the koff (human CD40 protein) was 0.0052 s⁻¹ and the kon (human CD40 protein) was 57000 M⁻¹ s⁻¹. The “IL12p40 release, human DC + HFF1 co-culture, EC50, soluble FAP 0 ng/mL” value (human FAP on cells [4]) was 0.13 nM, the “IL12p40 release, human DC + HFF1 co-culture, EC50, soluble FAP 120 ng/mL” value (soluble FAP [5]) was 0.46 nM and the “IL12p40 release, human DC + HFF1 co-culture, EC50, soluble FAP 480 ng/mL” value (soluble FAP [5]) was 0.8 nM.

Source: US20250376536A1 (Bristol-Myers Squibb, published 2025)
